Reference: the supplement of paper PMC7877785
± gives the uncertainty stated by the source.

Assay: self-splicing fitness, log relative to wild type (ln ratio); higher = more splicing; Tetrahymena group I intron in knt gene, E. coli kanamycin selection, DiMSum; sequences stand for … in CUCUCU…GGAGGGAAAAGUUAUCAGGCAUGCACCUGGUAGCUAGUCUUUAAACCAAUAGAUUGCAUCGGUUUAAAAGGCAAGACCGUCAAAUUGCGGGAAAGGGGUCAACAGCCGUUCAGUACCAAGUCUCAGGGGAAACUUUGAGAUGGCCUUGCAAAGGGUAUGGUAAUAAGCUGACGGACAUGGUCCUAACCACGCAGCCAAGUCCUAAGUCAACAGAUCUUCUGUUGAUAUGGAUGCAGUUCACAGACUAAAUGUCGGUCGGGGAAGAUGUAUUCUUCUCAUAAGAUAUAGUCGGACCUCUCCUUAAUGGGAGCUAGCGGAUGAAGUGAUGCAACACUGGAGCCGCUGGGAACUAAUUUGUAUGCGAAAGUAUAUUGAUUAGUUUUGGAGUACUCGUGGUCG
How it was run: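 Colonies from six replicate transformations of E. coli BL21(DE3) were pooled and amplicon-sequenced on an Illumina HiSeq 2500. The library placed an intron with all eight P1ex-region nucleotides randomised inside the knt kanamycin-resistance gene on pET-22b(+), and cells grew overnight at 37°C or 30°C on LB agar with or without 25 μg/mL kanamycin (plus 100 μg/mL carbenicillin, 50 μM IPTG, 0.2% rhamnose). Fitness is the DiMSum error-weighted combination of wild-type-normalised replicate fold changes, kanamycin versus none.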

ACCCAGCAAUAUUACGUUAG
self-splicing fitness (ln) (30 °C): -3.31 ± 0.11
self-splicing fitness (ln) (37 °C): -3.09 ± 0.15

ACCGAGCAAUAUUACGAAGC
self-splicing fitness (ln) (30 °C): -3.47 ± 0.36
self-splicing fitness (ln) (37 °C): -2.76 ± 0.36

ACCGAGCAAUAUUACGACCG
self-splicing fitness (ln) (30 °C): -2.92 ± 0.22
self-splicing fitness (ln) (37 °C): -1.52 ± 0.21

ACCGAGCAAUAUUACGAGCU
self-splicing fitness (ln) (30 °C): -2.94 ± 0.23
self-splicing fitness (ln) (37 °C): -2.54 ± 0.28

ACCGAGCAAUAUUACGAUAA
self-splicing fitness (ln) (30 °C): -3.72 ± 0.23
self-splicing fitness (ln) (37 °C): -2.01 ± 0.2

ACCGAGCAAUAUUACGAUAU
self-splicing fitness (ln) (30 °C): -3.68 ± 0.18
self-splicing fitness (ln) (37 °C): -1.54 ± 0.14

ACCGAGCAAUAUUACGAUCG
self-splicing fitness (ln) (30 °C): -3.05 ± 0.33
self-splicing fitness (ln) (37 °C): -1.64 ± 0.27

ACCGAGCAAUAUUACGAUGA
self-splicing fitness (ln) (30 °C): -2.47 ± 0.17
self-splicing fitness (ln) (37 °C): -2.73 ± 0.28

ACCGAGCAAUAUUACGAUUU
self-splicing fitness (ln) (30 °C): -2.41 ± 0.11
self-splicing fitness (ln) (37 °C): -0.954 ± 0.11

ACCGAGCAAUAUUACGCAGC
self-splicing fitness (ln) (30 °C): -4.02 ± 0.47
self-splicing fitness (ln) (37 °C): -2.84 ± 0.48

ACCGAGCAAUAUUACGCAUG
self-splicing fitness (ln) (30 °C): -2.69 ± 0.13
self-splicing fitness (ln) (37 °C): -2.47 ± 0.21

ACCGAGCAAUAUUACGCGAA
self-splicing fitness (ln) (30 °C): -2.33 ± 0.32
self-splicing fitness (ln) (37 °C): -3.17 ± 0.4

ACCGAGCAAUAUUACGCUUC
self-splicing fitness (ln) (30 °C): -2.06 ± 0.36

ACCGAGCAAUAUUACGGACC
self-splicing fitness (ln) (30 °C): -1.29 ± 0.082
self-splicing fitness (ln) (37 °C): -0.293 ± 0.092

ACCGAGCAAUAUUACGGACG
self-splicing fitness (ln) (30 °C): -2.21 ± 0.15
self-splicing fitness (ln) (37 °C): 0.0411 ± 0.13

ACCGAGCAAUAUUACGGAGU
self-splicing fitness (ln) (30 °C): -3.72 ± 0.25
self-splicing fitness (ln) (37 °C): -2.11 ± 0.18

ACCGAGCAAUAUUACGGCAC
self-splicing fitness (ln) (30 °C): -2.07 ± 0.14
self-splicing fitness (ln) (37 °C): -1.76 ± 0.27

ACCGAGCAAUAUUACGGUCU
self-splicing fitness (ln) (30 °C): -3.36 ± 0.1
self-splicing fitness (ln) (37 °C): -1.62 ± 0.092

ACCGAGCAAUAUUACGUCGA
self-splicing fitness (ln) (30 °C): -3.13 ± 0.24
self-splicing fitness (ln) (37 °C): -2.12 ± 0.15

ACCGAGCAAUAUUACGUGAC
self-splicing fitness (ln) (30 °C): -4.19 ± 0.34
self-splicing fitness (ln) (37 °C): -1.4 ± 0.15

ACCGAGCAAUAUUACGUGCG
self-splicing fitness (ln) (30 °C): -1.64 ± 0.082
self-splicing fitness (ln) (37 °C): -1.37 ± 0.13

ACCUAGCAAUAUUACGACCU
self-splicing fitness (ln) (30 °C): -1.26 ± 0.1
self-splicing fitness (ln) (37 °C): 0.455 ± 0.12

ACCUAGCAAUAUUACGAGGC
self-splicing fitness (ln) (30 °C): -1.58 ± 0.18
self-splicing fitness (ln) (37 °C): -2.64 ± 0.25

ACCUAGCAAUAUUACGAUCA
self-splicing fitness (ln) (30 °C): -1.23 ± 0.17
self-splicing fitness (ln) (37 °C): -1.19 ± 0.18

ACCUAGCAAUAUUACGAUCU
self-splicing fitness (ln) (30 °C): -0.35 ± 0.079
self-splicing fitness (ln) (37 °C): 0.0427 ± 0.1

ACCUAGCAAUAUUACGAUGU
self-splicing fitness (ln) (30 °C): -0.605 ± 0.045
self-splicing fitness (ln) (37 °C): 0.0835 ± 0.065

ACCUAGCAAUAUUACGCAAA
self-splicing fitness (ln) (30 °C): -2.56 ± 0.3
self-splicing fitness (ln) (37 °C): -1.76 ± 0.18

ACCUAGCAAUAUUACGCACC
self-splicing fitness (ln) (30 °C): -1.24 ± 0.14
self-splicing fitness (ln) (37 °C): 0.276 ± 0.16

ACCUAGCAAUAUUACGCACG
self-splicing fitness (ln) (30 °C): -0.85 ± 0.099
self-splicing fitness (ln) (37 °C): 0.0662 ± 0.12

ACCUAGCAAUAUUACGCAGC
self-splicing fitness (ln) (30 °C): -1.43 ± 0.095
self-splicing fitness (ln) (37 °C): -1.46 ± 0.12

ACCUAGCAAUAUUACGCAUU
self-splicing fitness (ln) (30 °C): -1.42 ± 0.051
self-splicing fitness (ln) (37 °C): -0.377 ± 0.056

ACCUAGCAAUAUUACGCCAU
self-splicing fitness (ln) (30 °C): -3.51 ± 0.27
self-splicing fitness (ln) (37 °C): -1.21 ± 0.19

ACCUAGCAAUAUUACGCGAG
self-splicing fitness (ln) (30 °C): -3.54 ± 0.15
self-splicing fitness (ln) (37 °C): -1.55 ± 0.11

ACCUAGCAAUAUUACGCGAU
self-splicing fitness (ln) (30 °C): -2.32 ± 0.078
self-splicing fitness (ln) (37 °C): -0.981 ± 0.087

ACCUAGCAAUAUUACGCGUU
self-splicing fitness (ln) (30 °C): -2.76 ± 0.099
self-splicing fitness (ln) (37 °C): -0.77 ± 0.085

ACCUAGCAAUAUUACGGAAC
self-splicing fitness (ln) (30 °C): -3.04 ± 0.24

ACCUAGCAAUAUUACGGCAA
self-splicing fitness (ln) (30 °C): -1.41 ± 0.17
self-splicing fitness (ln) (37 °C): 0.02 ± 0.14

ACCUAGCAAUAUUACGGCAU
self-splicing fitness (ln) (30 °C): -0.00618 ± 0.076
self-splicing fitness (ln) (37 °C): 0.451 ± 0.09

ACCUAGCAAUAUUACGGGUA
self-splicing fitness (ln) (30 °C): -1.76 ± 0.12
self-splicing fitness (ln) (37 °C): -1.19 ± 0.088

ACCUAGCAAUAUUACGGUCC
self-splicing fitness (ln) (30 °C): -2.82 ± 0.15
self-splicing fitness (ln) (37 °C): -2 ± 0.15

ACCUAGCAAUAUUACGUACC
self-splicing fitness (ln) (30 °C): -1.59 ± 0.099
self-splicing fitness (ln) (37 °C): -0.156 ± 0.11

ACCUAGCAAUAUUACGUAGA
self-splicing fitness (ln) (30 °C): -2.73 ± 0.16
self-splicing fitness (ln) (37 °C): -2.49 ± 0.21

ACCUAGCAAUAUUACGUAGG
self-splicing fitness (ln) (30 °C): -3.59 ± 0.2
self-splicing fitness (ln) (37 °C): -2.93 ± 0.21

ACCUAGCAAUAUUACGUCGU
self-splicing fitness (ln) (30 °C): -0.733 ± 0.045
self-splicing fitness (ln) (37 °C): -0.455 ± 0.059

ACCUAGCAAUAUUACGUGUG
self-splicing fitness (ln) (30 °C): -1.28 ± 0.057
self-splicing fitness (ln) (37 °C): -0.808 ± 0.064

ACGAAGCAAUAUUACGAAAG
self-splicing fitness (ln) (30 °C): -3.2 ± 0.12
self-splicing fitness (ln) (37 °C): -2.32 ± 0.16

ACGAAGCAAUAUUACGACAG
self-splicing fitness (ln) (30 °C): -1.59 ± 0.11
self-splicing fitness (ln) (37 °C): -0.583 ± 0.13

ACGAAGCAAUAUUACGACUC
self-splicing fitness (ln) (30 °C): -1.12 ± 0.072
self-splicing fitness (ln) (37 °C): -0.0297 ± 0.088
